The labels stand for the following.
B1: Speckle-type POZ protein (Homo sapiens), O43791 (parent)
chain: MSRVPSPPPPAEMSSGPVAESWCYTQIKVVKFSYMWTINNFSFCREEMGEVIKSSTFSSGANDKLKWCLRVNPKGLDEESKDYLSLYLLLVSCPKSEVRAKFKFSILNAKGEETKAMESQRAYRFVQGKDWGFKKFIRRDFLLDEANGLLPDDKLTLFCEVSVVQDSVNISGQNTMNMVKVPECRLADELGGLWENSRFTDCCLCVAGQEFQAHKAILAARSPVFSAMFEHEMEESKKNRVEINDVEPEVFKEMMCFIYTGKAPNLDKMADDLLAAADKYALERLKVMCEDALCSNLSVENAAEILILADLHSADQLKTQAVDFINYHASDVLETSGWKSMVVSHPHLVAEAYRSLASAQCPFLGPPRKRLKQS
partner: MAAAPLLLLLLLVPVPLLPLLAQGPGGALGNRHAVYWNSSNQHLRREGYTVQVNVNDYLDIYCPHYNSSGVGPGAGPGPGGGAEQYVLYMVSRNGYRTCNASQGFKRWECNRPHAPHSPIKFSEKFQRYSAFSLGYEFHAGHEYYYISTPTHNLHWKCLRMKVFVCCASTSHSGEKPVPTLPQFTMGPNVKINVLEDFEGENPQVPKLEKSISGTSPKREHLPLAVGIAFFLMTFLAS
B2: Speckle-type POZ protein (Homo sapiens), O43791 (parent)
chain: B1 chain
partner: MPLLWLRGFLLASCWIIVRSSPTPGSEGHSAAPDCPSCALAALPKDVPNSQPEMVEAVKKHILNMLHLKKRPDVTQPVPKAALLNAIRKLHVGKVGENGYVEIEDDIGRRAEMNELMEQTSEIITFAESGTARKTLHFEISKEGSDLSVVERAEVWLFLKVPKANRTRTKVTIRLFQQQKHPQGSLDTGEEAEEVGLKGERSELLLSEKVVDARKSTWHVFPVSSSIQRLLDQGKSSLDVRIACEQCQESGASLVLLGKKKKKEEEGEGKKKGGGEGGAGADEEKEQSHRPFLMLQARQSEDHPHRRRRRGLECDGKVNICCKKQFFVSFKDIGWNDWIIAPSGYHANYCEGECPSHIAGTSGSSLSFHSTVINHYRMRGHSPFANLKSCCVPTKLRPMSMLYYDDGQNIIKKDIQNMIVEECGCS
B3: Speckle-type POZ protein (Homo sapiens), O43791 (parent)
chain: B1 chain
partner: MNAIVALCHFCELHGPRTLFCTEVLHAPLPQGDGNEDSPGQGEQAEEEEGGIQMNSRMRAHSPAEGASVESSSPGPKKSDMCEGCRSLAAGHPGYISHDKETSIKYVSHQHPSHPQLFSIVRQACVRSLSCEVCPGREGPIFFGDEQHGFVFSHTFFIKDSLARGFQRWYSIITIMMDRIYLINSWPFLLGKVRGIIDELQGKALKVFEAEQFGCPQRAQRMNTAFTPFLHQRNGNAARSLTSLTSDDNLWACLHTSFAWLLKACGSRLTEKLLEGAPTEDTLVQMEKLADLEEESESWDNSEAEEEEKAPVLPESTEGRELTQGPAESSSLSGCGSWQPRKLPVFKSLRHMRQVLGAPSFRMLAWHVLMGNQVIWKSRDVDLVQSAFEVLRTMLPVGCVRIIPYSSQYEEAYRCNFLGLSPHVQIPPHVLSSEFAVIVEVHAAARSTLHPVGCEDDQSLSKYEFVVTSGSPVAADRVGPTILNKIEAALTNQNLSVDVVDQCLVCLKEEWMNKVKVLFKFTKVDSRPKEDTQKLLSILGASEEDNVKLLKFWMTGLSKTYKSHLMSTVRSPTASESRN
B4: Speckle-type POZ protein (Homo sapiens), O43791 (parent)
chain: B1 chain
partner: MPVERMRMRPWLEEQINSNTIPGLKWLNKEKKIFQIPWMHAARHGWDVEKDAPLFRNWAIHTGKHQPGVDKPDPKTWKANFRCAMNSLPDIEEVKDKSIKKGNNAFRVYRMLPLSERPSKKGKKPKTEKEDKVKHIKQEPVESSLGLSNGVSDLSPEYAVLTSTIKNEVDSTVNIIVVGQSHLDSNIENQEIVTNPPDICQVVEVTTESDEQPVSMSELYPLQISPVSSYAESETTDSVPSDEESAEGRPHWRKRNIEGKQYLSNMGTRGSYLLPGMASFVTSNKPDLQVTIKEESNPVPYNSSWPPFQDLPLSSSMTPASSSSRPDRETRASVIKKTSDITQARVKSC
B5: Speckle-type POZ protein (Homo sapiens), O43791 (parent)
chain: B1 chain
partner: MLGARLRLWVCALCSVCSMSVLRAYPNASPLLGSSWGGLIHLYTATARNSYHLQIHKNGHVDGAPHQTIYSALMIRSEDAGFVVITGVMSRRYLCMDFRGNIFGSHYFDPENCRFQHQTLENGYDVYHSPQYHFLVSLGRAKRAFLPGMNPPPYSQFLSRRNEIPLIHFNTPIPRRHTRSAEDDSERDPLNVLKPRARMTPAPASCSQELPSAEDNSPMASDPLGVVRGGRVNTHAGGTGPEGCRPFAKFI
B6: Speckle-type POZ protein (Homo sapiens), O43791 (parent)
chain: B1 chain
partner: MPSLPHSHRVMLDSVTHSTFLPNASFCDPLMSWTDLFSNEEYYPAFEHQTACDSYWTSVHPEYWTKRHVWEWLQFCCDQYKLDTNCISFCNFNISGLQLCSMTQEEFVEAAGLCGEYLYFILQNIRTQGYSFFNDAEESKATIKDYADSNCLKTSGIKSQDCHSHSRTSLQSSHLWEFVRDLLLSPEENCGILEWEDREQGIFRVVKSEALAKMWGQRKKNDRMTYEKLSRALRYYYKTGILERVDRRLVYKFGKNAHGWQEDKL

The variants in the first assay derive from B1. As to conditions: with efna3_human EFNA3, P52797.
Consider F133L, for which the “effect of a mutation on the interaction” value is “with no effect”.

Variants of B1 are the subject of another assay. Conditions: with efna3_human EFNA3, P52797. This is another data set of the same source.
Take F133V: the “effect of a mutation on the interaction” value was “with no effect”.

The next assay covers variants of B1. Conditions: with efna3_human EFNA3, P52797. This is another data set of the same source.
In the case of Y87C, the “effect of a mutation on the interaction” value is on record as “with no effect”.

Variants of B2 are the subject of another assay. Conditions: with inhba_human INHBA.
As for Y87C, the “effect of a mutation on the interaction” value is reported as “with no effect”.

A further assay covers variants of B2. Conditions: with inhba_human INHBA. This is another data set of the same source.
For the variant F102C, the “effect of a mutation on the interaction” value is given as “with no effect”.

The next assay covers variants of B2. Conditions: with inhba_human INHBA. This is another data set of the same source.
As to F133L, the “effect of a mutation on the interaction” value is reported as “with no effect”.

Variants of B2 are the subject of a further assay. As to conditions: with inhba_human INHBA. The source holds these as a separate data set.
On to F133V, for which the “effect of a mutation on the interaction” value is on record as “with no effect”.

The variants in the next assay derive from B3. As to conditions: with flcn_human FLCN.
For the variant Y87C, the “effect of a mutation on the interaction” value is “with no effect”.

The variants in a further assay derive from B3. Conditions: with flcn_human FLCN. This is another data set of the same source.
F133L: the “effect of a mutation on the interaction” value is “with no effect”.

Variants of B3 are the subject of the next assay. Conditions: with flcn_human FLCN. This is another data set of the same source.
Regarding F133V, the “effect of a mutation on the interaction” value is listed as “with no effect”.

The variants in the next assay derive from B3. Conditions: with flcn_human FLCN. The source holds these as a separate data set.
With F102C, the “effect of a mutation on the interaction” value was “with no effect”.

A further assay covers variants of B4. As to conditions: with irf2_human IRF2, P14316.
For F102C, the “effect of a mutation on the interaction” value is on record as “with no effect”.

Variants of B4 are the subject of a further assay. As to conditions: with irf2_human IRF2, P14316. The source holds these as a separate data set.
As to F133L, the “effect of a mutation on the interaction” value was “with no effect”.

The variants in the next assay derive from B4. Conditions: with irf2_human IRF2, P14316. The source holds these as a separate data set.
As for F133V, the “effect of a mutation on the interaction” value is “with no effect”.

The next assay covers variants of B4. As to conditions: with irf2_human IRF2, P14316. The source holds these as a separate data set.
Consider Y87C, for which the “effect of a mutation on the interaction” value is on record as “with no effect”.

In a further assay the parent is B5. As to conditions: with fgf23_human FGF23, Q9GZV9.
As for F102C, the “effect of a mutation on the interaction” value was “with no effect”.

Variants of B5 are the subject of a further assay. As to conditions: with fgf23_human FGF23, Q9GZV9. The source holds these as a separate data set.
Take Y87C: the “effect of a mutation on the interaction” value is reported as “with no effect”.

The next assay covers variants of B5. As to conditions: with fgf23_human FGF23, Q9GZV9. This is another data set of the same source.
With F133V, the “effect of a mutation on the interaction” value is “with no effect”.

In another assay the parent is B5. Conditions: with fgf23_human FGF23, Q9GZV9. This is another data set of the same source.
Consider F133L, for which the “effect of a mutation on the interaction” value is “with no effect”.

Variants of B6 are the subject of another assay. As to conditions: with elf5_human ELF5, Q9UKW6.
In the case of F102C, the “effect of a mutation on the interaction” value is recorded as “with no effect”.

In the next assay the parent is B6. Conditions: with elf5_human ELF5, Q9UKW6. The source holds these as a separate data set.
Consider Y87C, for which the “effect of a mutation on the interaction” value is listed as “with no effect”.

The variants in a further assay derive from B6. As to conditions: with elf5_human ELF5, Q9UKW6. This is another data set of the same source.
On to F133L, for which the “effect of a mutation on the interaction” value is given as “with no effect”.

Variants of B6 are the subject of another assay. Conditions: with elf5_human ELF5, Q9UKW6. The source holds these as a separate data set.
As to F133V, the “effect of a mutation on the interaction” value is reported as “with no effect”.
